Sequences and labels used below:
B1: LIR(TP[T]) peptide (peptide)
peptide: DGTLIIDLPDSY
notes: also called TP53INP2 peptide; source: synthetic peptide (Cosmo Bio), purified by SEC
B2: LIR(ATG4C)-GFP (domain or fragment)
chain: KQLKRFSTEEFVLL
notes: source: HKO HeLa cells, transfected, in cells; not shown: GFP, C-terminal, kept
B3: LIR(UBR4)-GFP (domain or fragment)
chain: QEQSEVDHGDFEMVSESMVLETAEN
notes: as for B2
B4: LIR(ULK2)-GFP (domain or fragment)
chain: SKNSSCDTDDFVLVPHNISSDHSCD
notes: as for B2
B5: LIR(4B)-GFP (domain or fragment)
chain: ERFFDSEDEDFEILSL
notes: also called ATG4B (4B); source: HKO HeLa cells, transfected, in cells; not shown: GFP, C-terminal, kept
B6: LIR(WDFY3/ALFY)-GFP (domain or fragment)
chain: DQLSLDEKDGFIFVNYSEGQTRAHL
notes: as for B2
B7: LIR(PLEKHM1)-GFP (domain or fragment)
chain: QKVRPQQEDEWVNVQYPDQPEEPPE
notes: as for B2
B8: LIR(TP53INP1)-GFP (domain or fragment)
chain: PEFNEKEDDEWILVDFIDTCTGFSA
notes: as for B2
B9: LIR(JMY)-GFP (domain or fragment)
chain: FALEETLESDWVAVRPHVFDEREKH
notes: as for B2
B10: LIR(ATG4D)-GFP (domain or fragment)
chain: LRAKRPSSEDFVFL
notes: as for B2
B11: LIR(ATG4A)-GFP (domain or fragment)
chain: QLEEFDLEEDFEILSV
notes: as for B2
B12: LIR(ULK1)-GFP (domain or fragment)
chain: SKDSSCDTDDFVMVPAQFPGDLVAE
notes: as for B2
B13: LIR(TBC1D25)-GFP (domain or fragment)
chain: PSEDSPLLEDWDIISPKDVIGSDVL
notes: as for B2
B14: LIR(St)-GFP (domain or fragment)
chain: NSQDRVDHEEWEMVPRHSSWGDVGV
notes: also called STBD1 (St); source: HKO HeLa cells, transfected, in cells; not shown: GFP, C-terminal, kept
B15: LIR(TP)-GFP (domain or fragment)
chain: FVSEEDEVDGWLIIDLPDSYAAPPS
notes: also called TP53INP2 (TP); source: HKO HeLa cells, transfected, in cells; not shown: GFP, C-terminal, kept
B16: LIR(FUNDC1)-GFP (domain or fragment)
chain: PQDYESDDDSYEVLDLTEYARRHQW
notes: as for B2
B17: LIR(BNIP3)-GFP (domain or fragment)
chain: GMQEESLQGSWVELHFSNNGNGGSV
notes: as for B2

From PMC10240976 (Autophagy, 2022) come the findings set out here.

What is called Kd is a measure of binding affinity in units of concentration.

T1 sequence (Q9H0R8 whole entry): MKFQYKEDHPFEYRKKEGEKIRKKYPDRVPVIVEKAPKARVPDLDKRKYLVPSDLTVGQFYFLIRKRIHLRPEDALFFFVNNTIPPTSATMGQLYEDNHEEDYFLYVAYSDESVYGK

The target of the first test is LC3A (purified, for ITC). Kind of test: ITC. Particulars: both partners purified.
B1: the Kd was > 132 µM.

Another test has as its target T1, mRFP-GABARAPL1 (UniProt Q9H0R8 1-117).
T1 construct: also called membrane-anchored GABARAPL1
Kind of test: recruitment of LIR-GFP or gProbe. Further details: unit not given here. The conditions noted are these: partners not purified.
B2: the other was 2.93.

Consider B3, for which the other was 2.81.

In the case of B4, the other amounted to 2.5.

The molecule B5 showed an other of 2.19.

B6 returned an other of 3.06.

Molecule B7 came in with an other of 1.86.

In turn, B8 registered an other of 2.43.

As for B9, the other amounted to 1.46.

Turning to B10, the other was determined as 2.65.

With B11, the other came out at 2.18.

As for B12, the other is 1.58.

For B13, the other was found to be 1.41.

Turning to B14, the other amounted to 5.08.

For B15, the other came to 5.

In a further test the target is T1, mRFP-GABARAPL1. Kind of test: recruitment of LIR-GFP or gProbe to mRFP-mATG8-containing autophagic membranes (A:C ratio), microscopy; LIR(X)-GFP or gProbe-X co-expressed with one mRFP-mATG8 in HKO HeLa cells; 100 nM BafA1 in EBSS for 2 h; fixed in 4% PFA; autophagosome:cytosol GFP ratio normalized to GFP-expressing cells. Particulars: partners not purified.
As for B16, the “normalized A:C ratio” value stood at 1.96.

Consider B17, for which the “normalized A:C ratio” value was 1.45.
